Assay results as given in the nanobody polyreactivity screen of Harvey et al. (2022).

Test: yeast display, Sf9 membrane polyspecificity reagent, FACS + sequencing; frameworks hold sequencing errors
Outline: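 Nanobodies came from a synthetic yeast display library in Saccharomyces cerevisiae BJ5465, induced with galactose for 36–48 hours and stained for 1 hour at 4 °C with 10% biotinylated, detergent-solubilized Sf9 membrane reagent. Cells were enriched on streptavidin microbeads and then FACS-sorted, with low and high (top ~1%) gates set on anti-HA fluorescence for expression and streptavidin fluorescence for reagent binding. Each polyreactivity label reflects the gate a clone came from. Genes were amplified by colony PCR, sequenced by MiSeq 2 × 250 and filtered by CDR length.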

Row | Sequence | polyreactivity (PSR sort gate)
1 | QVQLVESGGGLVQAGGSLRLSCAASGRTFPIYAMGWYRQAPGKERELVATITWNDGNTYYADSVKGRFTISRDNAKNTVYLQMNSLKPEDTAVYYCAAKGGWPWHYHYQKNSEYDYWGQGTQVTVSS | low polyreactivity
2 | QVQLVESGGGLVQAGGSLRLICAASGSILDGNTMGWYRQAPGKERELVAAITWDGTSTYFADSVKGRFTISRDNAKNTVYLQMNSLKPEDTAVYYCAATKGYSDPSTGYYAYIHYDYWGQGTQVTVSS | low polyreactivity
3 | QVQLVESGGGLVQAGGSLRLSCAASGGTLAYYAMGWYRQAPGKERELVAAITRSGGSTYYADSVKGRFTISRDNAKNTVYLQMNSLKPEDTAVYYCAALLAYCKNRWHIEYDYWGQGTQVTVSS | low polyreactivity
4 | QVQLVESGGGLVQAGGSLRLSCAASGSIFIGYAMGWYRQSPGKERELVAAINDSGDRTYYADSVKGRFTISRDNAKNTVYLQMNSLKPEDTAVYYCAADLVSLDPEYDYWGQGTQVTVSS | low polyreactivity
5 | QVQLVESGGGLVQAGGSLRLSCPASGIIFHPYAMGWYRQAPGKERQLVAVITWPGDSTYYADSVKGRFTISRDNAKNTVYVQMNSLKPEDTAVYYCNVEAWGTSGELPYDYWGQGTQVTVSS | low polyreactivity
6 | QVQLVESGGGLVQAGGSLRLSCAASGRIFSGYAMGSYRQAPGKERELVAAITSVGSTNYADSVKGLFTISRDNAKNTVYLQMNSLKPEDTAVFNCAAKRYRPKYEYYYWGLGTQVTVSS | high polyreactivity
7 | QVQLVESGGVLVQAGGSLRLSCAASGRTFRYYAMGWYRQAPGKERELVAAITVTVTSTFYADSVKGRFTISRDNAKNTVYLQMNSLKPEDTAVYYCAKVDRQSPGQYYYWGQGTQVTVSS | low polyreactivity
8 | QVQRVESGGGLVQAGGRLRLSCAASGSIFFSKAMGWYRPAPGKERELVAGIRSGGITNYADSVKGRFTISRDNAKNTVSLQMNSLKPEDTAVYYCAKLKDHGRYAYAFDYWGQGTQVTVSS | low polyreactivity
9 | QVQLVESGGGLVQAGGSLRLSCAASGFTFYQNAMGWYRQAPGKVRELVAAIDRRGGRTYNADSVKGRFTISRDNAKKTVYLQMNSLKPEDTAVYYCNKEKYYTGYDYWGQGTQVTVSS | high polyreactivity
10 | QVQLVESGGGLVQAGGSLRLSCAASGITITRYDMGWYRQAPGKERELVAAINWSGGRTYYADSVKGRFTISRDNAKYTVYLQMNSLKPEDTAVYYCNRALKYRRRDYWGQGTQVTVSS | high polyreactivity
11 | QVQLVESGGGLVQAGGSLRLSCAASGSIFHIYAMGWYRQAPGKERELVAAISSGGRTNYADSVKGRFTISRDNAKNTVYLQMNSLKPEDTAVYYCAADWIYLPTRNYRVRVDYWGQGTQVTVSS | high polyreactivity
12 | QVQLVESGGGLVKAGGSLRLSCAASGSTFYAYAMGWSRQAPGKERELVAAISSSGGSTYYADSVKGRFTISRDNAKNTVYLQMNSLKPEDTAVYYCAAYDSVQIYWILGFDYWGQGSQVTVSS | low polyreactivity
13 | QVQLVESGGGLVQAGGSLSLSCAASGSTFPKYAMGWYRQAPGKERELVAAISGSGGSTYYADSVKGRFTISRDNAKNTVYLQMNSLKPEDTAVYYSAVAWNVRGVGARQRDIYGYWGQGTQVTVST | high polyreactivity
14 | QVQLVESGGGLVQAGGILRLSCAASGRTFGRNAMGWYRQAQGKERELVAGISIGGGTTYYADSVKGRFTISRDNAKNTVYLQMNSLKPEDTAVYYCAARSWSYLHRYGYWGQGTLVTVSS | high polyreactivity
15 | QVQLVESGGGLVQAGGSLRLSCAAYGRIFGWYAMGWYRQAPGKERELVAAISSSTSTYYADSVKGRFTISRDNEKNTVYLQMNSLKPEDTAVYYCNADWYYQRVQYYWYRYDYWGQGTQVTVSS | high polyreactivity
16 | LVQHVQSGGGLVQAGGSLRVSCAASGPTLDSNAMGWYRQAPGKERELVAAISSAGSTNYPDSVKGRFTISRDNAKNTVYLQMNSLKPEDTAVYYSAADLIGSHDYWGQGTQVTVSS | low polyreactivity
17 | QVQLVESGGGLGQAGGSLRLSCAASGSIFPYYAMGWYRPAPGTERELVASINQSDGTPYYADSVKGRFTISRDNAKNTVYLQMNSLKPEDTAVYYCAADTTLQAFIRYRPIGSYDSWGQGTQVTVSS | low polyreactivity
18 | QVQLVESGGGLVQAGGSLRLSCAASGIIFPRYVMGWYRQAPGKERELVAAINRSGGSTYYADSVKGRFTISRDYAKNTVYLQMNSLKPEDTAVYYCAALDVRSYRGGYWGQGTQVTVSS | high polyreactivity
19 | QGQLVESGGGLVQAGGSLRLSCAASGRIFGHYAMGWYRQAPGKERELVAAISQSGTNTYYADSVKGRFTISRDNAKNTVYLQMNSLKPEDTAVYYCAAKPPRRYQLMDYWGQGTQVTVSS | high polyreactivity
20 | QVQLVESGGGLVQAGGSLRLSCAASGITFVYNAMGWYRQAPGKERELVASITFGGGSTYYADSVKGRFTISRDNAKITVYLQMHSLKPEDTAVYYCAARLHVAFDYWGQGTQVTVSS | low polyreactivity
21 | QVQLEESGGGLVQAGGSLRLSWAASGSTFSVNAMGWYRQAPGKERELVARITNGGSTYYADSVKGRFTISRDNAKNTVYLQMNSLKPEDTAVYYCAAKLGSYIYHKQRDWGQGTQVTVSS | low polyreactivity
22 | QVQLVETRGGLLQAGGSLRLSCDASGRTFAYYAMGRYRQAPGKESELVAAITYSDGSTYYADSVKGRFTISRDNAKNTFYLQMNSLKPEDPSVYYCAKGLSREEPENDYDYWGQGTQVTVSS | low polyreactivity

Row | Sequence | polyreactivity (PSR sort gate)
23 | QVQLVESGGGLVQAGGSLRLSCAASGRTFDVNAMGWYRQAPGKERELVAAITWDGGSTYYADSVKGRFTISRDNAKNTVYLQMNSLKPEDTALYYCAADFIQGAWWYVTYRYTYEYWGQGTQVTVSS | low polyreactivity
24 | QVQLVESGGGLVQARGSLRLSCAASGRIFVRKAMGWYRQAPGKERELVASISTSSGSTYYADSVKGRFTISRDNAKNTVYLQMNSLTPEVTAVYYCNAGYHFVHWPHVKHKKFDYWGQGTQVTVSS | low polyreactivity
25 | QVQLVESGGGLVQAGGSLRLSCAASGRIFGSYAMGWYRQAPGKERELVATIRRSGGRTYYADSVKGRFTISRDNAKNTVYLQKTSLKPADTAVYYCAKDEWGNIRHERDYWGQGTQVTVSS | low polyreactivity
26 | QVQLVESGGGLVQAGGSLRLSCAASGSTFYDNAKGWYRPAPGKERELVAAISYSGASTYYADSVKGRFTISRDNAQNTVYLQMNSLKPEDTAVYYCSKTFYSLYWGQGTQVTVSS | low polyreactivity
27 | QVQLVESGGGLVQAGGSLRLSSAASGLTFYRNAMGWYRQAPGKERELVAGISSSGASTYYADSVKGRFTISRDNAKNTVYLQMNSLKPEDTAVYYCAVRFYGRYLRYNYWGQGTQVTVSS | high polyreactivity
28 | QVQLVESGGGLVQAGGRLRISCAASGSIFYLYARGWYRQAPGKERELVPVITGSGGSTYYADSVKGRFTISRDNSKYTVYLQMNSLKPVDTAVYYGAADYYWGYDWGQGTQVTVSS | low polyreactivity
29 | QVQLVESGGGLVQAGGSLRLSCAASGSTFILYAMGWYRQAPGKERELVAAITSRGGSTYYADSVKGRFTISRDNAKNTVYLQMNSLKPEDTAVYYCAADNGYIGPKPYFLAYPVGYDSWGQGTQVTVSS | low polyreactivity
30 | QVQLQESGGGLLQAGGTLRLSCAASGSIFGYSGMGWYRQAPGKERELVAGIDYGTITNYADSVKGRFTISRDNAKNTVYLQKYSLKPADTAVYYCATDIHSVHNHRDKHVYDYWGQGTQVTVSS | low polyreactivity
31 | QVQLVESGGGLVQAGGSLRLSCAASGRIFKLNAMGWYRQAPGKERELVAAITRGGRTYYADSVKGRFTISRDNAKNTVYLQMNSLKPEDTAVYYCNKKTYQQTYKYDYWGQGTQVTVSS | high polyreactivity
32 | QVQLVESGGGLVQAGGSLRLSCAASGRIFYIYAMGWYRQAPGKERELVASITSSGTSTYADSVKGRFTISRDNAKNTVYLQMNSLKPEDTAVYYCNARGYPKSWRYSRGYEYWGQGTQVTVSS | low polyreactivity
33 | QVQLVESGGGLVQAGGSLRLSCAASGITFRYNAMGWYRQAPGKERQLVAGITGSGGRTYYADSVKGRFTISRDNAKNSVYLQMNSLKPEDTAVYYCAAYPPARRTMDYWGQGTQVTVSS | low polyreactivity
34 | QVQLVESGGGLVQAGGSLRLSCAASGRTFLVYVMGWYRQAPGKERELVASITYSGGSTYYADSVKGRFTISRDNAKNTVYLQMNSLKPEDTAVYYCAAAQGRQPYRARGLYYYWGQGTQVTVSS | high polyreactivity
35 | QVQLVESGGGLVQAGGSLRLSCAASGSIFVGYAMGWYRQAPGKEREFVAAISQRGTRTYYADSVKGRFTISRDNAKNTVYLQMNSLKPEDTAVYYCAARGWDQRSDYWGQGTQVIVSS | high polyreactivity
36 | QVHLVESGGGLVQAGGSLRLSCAASGSTFPRYSMGWYRQAPGTERELVAAITQSGGRTYYADSVKGSFTISRDNAKNTVYLQMNSRKPEDTAVYYFAAEDGLRGNRLYYWGHGTQVTVSS | high polyreactivity
37 | QVQLVESGGGLVQAGGSLRLSCSASGIIFKYYAMGWYRQAPVKERELVAAISRSSGSTYYADSVKGRFTISRDNAKNTVYLQMNSLKPEDTAVYYCAASGWQQKLDYWVQGTQVTVSS | high polyreactivity
38 | QVQLVESGGGLVQAGGRLRLSCAASGFTFVRNTMGWYRQAPGKDRELVAAISRSGGSTYYADSVKGRFTISRDNAKNTVYLQMNSLKPEDTAVYYCNAYRYLHYDWGQGTQVTVSS | high polyreactivity
39 | QVQLVESGGGLVQAGGSLRLSCAASGITFGWYAMGWYRQAPGKERELVAAITWDGGSTYYADSVKGRFTFSRDNAKNTVYLQMNSLKPEDTAVYYCAAEYIYYYYLVARDYWGQGTQVTVSS | high polyreactivity
40 | QVQLVESGGGLVHAGGSLRLSCAASGFILTGNAMGWYRQAPGKERELVAAITSGGRTYYADSVKGRFTISRDNAKNTVYLQMNSLKPEETAVYYCAARRRWSQTPFDYWGQGTQVTVSS | high polyreactivity
41 | QVQLVESGRGLVQAGGSLRLSCAASGYTFSNYGMGWYRQAPGKERELVAGIILGGSSTYYADSVKGRFTISRDNAKNTVYLQMNSLKPEDTAVYYCAAYVTGRYDWGQGTQVTVSS | high polyreactivity
42 | QVQLVESGGGLVQAGGSLRLSCAASGSIFPYYAMGWYRQAPGKERELVATITYRGGSTNYADSVKGRFTISRDNAKNTVYLQMNSLKPEDTAVYYCAAYGYVLASPYPYSFVKLGYWGQGTQVTVSS | low polyreactivity
43 | QVQLVESGGGLVQAGGSLRLSCAASGRTFSWYAMGGYRQAPGTERELVASISRGGSKSYADSVKGRFTISRDNAKNTVYLQMNSLKPEYTAVYYCAAGGFARTISYYWGQGTQVTVSS | high polyreactivity
